The source of these data is article PMC6792138.

The test system of the data set is PthA4AT (7.5-repeat TAL effector) (Xanthomonas citri ssp. citri variant AT). The data set can be described thus: PBM. Particulars: not stated; PBM performed as in Godoy et al. 2011.
Substance PBM probes with TTATTACCT displayed a binding signal of 0.476 E-score. With PBM probes with TATCGCCTT, the binding signal turned out to be 0.454 E-score. With PBM probes with TTATTACCC, the binding signal is 0.46 E-score.

Consider PBM probes with TATCACCTT, for which the binding signal was 0.476 E-score.

For the substance PBM probes with TATTACCCC, the binding signal was 0.458 E-score. The same measure for PBM probes with TATTACCTC: 0.466 E-score; for PBM probes with ATATCACCT: 0.46 E-score; for PBM probes with TATAACCTT: 0.462 E-score.

As for PBM probes with TATTACCTT, the binding signal came out at 0.481 E-score. On to PBM probes with TTATCACCT, for which the binding signal amounted to 0.464 E-score. Substance PBM probes with ATTATTACC displayed a binding signal of 0.456 E-score.
